Here are results for 20 molecules from patent US20260209362A1 (VIB VZW, published 2026).

Where a chain is given by its changes, count along the chain named.

Assay [1] has as its target T1, human IL-12Rβ2 (human, UniProt Q99665 24-862).
T1 construct: Expressed on HEK293T cells transiently transfected with a pcDNA3 plasmid (Genscript clone OHu21785); also called hIL-12RB2; IL-12 receptor β2 subunit
T1 sequence: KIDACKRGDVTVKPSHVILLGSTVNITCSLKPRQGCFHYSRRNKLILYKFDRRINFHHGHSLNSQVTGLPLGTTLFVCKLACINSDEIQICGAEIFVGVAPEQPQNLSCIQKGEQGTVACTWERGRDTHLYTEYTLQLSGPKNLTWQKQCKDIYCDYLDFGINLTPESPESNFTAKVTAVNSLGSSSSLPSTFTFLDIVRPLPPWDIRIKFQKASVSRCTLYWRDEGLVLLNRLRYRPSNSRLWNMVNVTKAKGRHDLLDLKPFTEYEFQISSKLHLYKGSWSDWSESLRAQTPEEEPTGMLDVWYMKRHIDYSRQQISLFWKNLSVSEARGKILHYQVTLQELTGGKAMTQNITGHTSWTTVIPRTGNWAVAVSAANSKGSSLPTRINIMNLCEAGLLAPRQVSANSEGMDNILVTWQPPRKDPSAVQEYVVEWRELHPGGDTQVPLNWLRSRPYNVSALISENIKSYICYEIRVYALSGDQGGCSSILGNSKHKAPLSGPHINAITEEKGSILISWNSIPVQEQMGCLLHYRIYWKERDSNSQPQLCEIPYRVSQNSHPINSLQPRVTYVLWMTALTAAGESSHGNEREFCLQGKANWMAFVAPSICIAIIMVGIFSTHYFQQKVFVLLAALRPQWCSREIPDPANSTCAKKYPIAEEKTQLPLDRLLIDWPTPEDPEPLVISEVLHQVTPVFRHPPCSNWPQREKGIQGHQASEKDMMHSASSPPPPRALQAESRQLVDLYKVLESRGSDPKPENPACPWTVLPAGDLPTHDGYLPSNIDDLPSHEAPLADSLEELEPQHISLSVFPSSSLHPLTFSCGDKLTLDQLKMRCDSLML
Nature of the assay: flow cytometry, P.E. on transfected HEK293T cells. On the technique in general: In flow cytometry, cells or beads pass a laser one at a time.

The target in assay [2] is T2, biotinylated recombinant human IL-12Rβ2 (human, UniProt Q99665 24-622, random biotinylated).
T2 construct: Recombinant protein produced in-house, biotinylated; also called hIL-12RB2; human IL-12RB2
T2 sequence: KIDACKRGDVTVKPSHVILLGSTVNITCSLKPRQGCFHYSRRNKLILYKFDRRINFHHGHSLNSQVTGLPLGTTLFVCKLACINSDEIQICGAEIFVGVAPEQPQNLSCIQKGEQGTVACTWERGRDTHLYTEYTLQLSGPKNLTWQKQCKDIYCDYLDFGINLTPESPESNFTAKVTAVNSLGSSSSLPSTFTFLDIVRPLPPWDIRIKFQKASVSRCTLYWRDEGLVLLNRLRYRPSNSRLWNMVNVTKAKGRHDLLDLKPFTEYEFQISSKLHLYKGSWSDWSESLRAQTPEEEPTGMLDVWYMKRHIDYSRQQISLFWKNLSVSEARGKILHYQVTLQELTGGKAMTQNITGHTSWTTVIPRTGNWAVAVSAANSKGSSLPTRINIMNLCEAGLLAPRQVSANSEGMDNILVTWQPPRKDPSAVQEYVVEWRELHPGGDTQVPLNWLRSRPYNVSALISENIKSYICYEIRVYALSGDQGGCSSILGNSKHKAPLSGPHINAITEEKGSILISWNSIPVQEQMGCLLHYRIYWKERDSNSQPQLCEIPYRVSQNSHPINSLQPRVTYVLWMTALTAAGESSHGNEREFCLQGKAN
The experiment in a line: ELISA, periplasmic extract on biotinylated hIL-12Rβ2, signal over control wells. Background: An ELISA detects its analyte on a solid surface through an enzyme-linked reagent.

Assay [3] addresses T3, biotinylated recombinant mouse IL-12Rβ2 (mouse, UniProt P97378 24-637, random biotinylated).
T3 construct: Recombinant protein produced in-house, biotinylated; also called mIL-12RB2; mouse IL-12RB2
T3 sequence: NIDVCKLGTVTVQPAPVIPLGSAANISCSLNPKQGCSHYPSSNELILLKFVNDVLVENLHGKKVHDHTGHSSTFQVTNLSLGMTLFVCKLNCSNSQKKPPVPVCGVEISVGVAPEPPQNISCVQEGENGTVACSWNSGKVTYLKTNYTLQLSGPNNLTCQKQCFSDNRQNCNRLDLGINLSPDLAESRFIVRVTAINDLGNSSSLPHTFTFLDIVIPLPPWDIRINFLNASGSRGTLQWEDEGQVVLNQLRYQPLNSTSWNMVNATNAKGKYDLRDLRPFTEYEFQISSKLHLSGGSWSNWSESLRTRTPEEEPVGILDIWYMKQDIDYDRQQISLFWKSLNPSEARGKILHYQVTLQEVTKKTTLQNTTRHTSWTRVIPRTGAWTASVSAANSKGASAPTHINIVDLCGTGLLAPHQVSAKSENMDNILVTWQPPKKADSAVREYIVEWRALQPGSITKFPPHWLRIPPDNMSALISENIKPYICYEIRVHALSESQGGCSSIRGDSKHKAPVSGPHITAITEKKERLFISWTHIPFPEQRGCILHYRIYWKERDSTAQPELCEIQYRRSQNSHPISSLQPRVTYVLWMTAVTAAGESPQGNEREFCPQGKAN
Nature of the assay: ELISA, periplasmic extract on biotinylated mIL-12Rβ2, signal over control wells.

B1: anti-IL-12Rβ2 VHH clone 3CAH34 (VHH, not shown: small tags and cut ends)
VHH: QVQLQESGGGSVQPGGSLRLSCGASGFTFSSFGMHWFRQAPGKGQEWAATISSSGGTTYYSDSVKGRFTISRDNAKNTLYLQMNSLKPEDTALYYCARDVTGAVRGQGTQVTVSS
notes: periplasmic extract; also called 20358
For B1, in assay [1], the “% cells bound” value was determined as 34.6% and the dMFI turned out to be 620.

B2: anti-IL-12Rβ2 VHH clone 3CAHS172 (VHH, not shown: small tags and cut ends)
VHH: B1 VHH with P14A, A48V
notes: periplasmic extract
Regarding B2, in assay [1], the “% cells bound” value worked out at 43% and the dMFI came out at 1020.

B3: anti-IL-12Rβ2 VHH clone 2CRH76 (VHH, not shown: small tags and cut ends)
VHH: QVQLQESGGGLVQTGGSLRLSCVASGRTFNWSAMGWFRQPPGKEREVVATISGGGTSAYYADSVKGRFTISRDGAKNTLYLQMNSLKPEDTAVYYCAADRVDYRMTLTQNGNHYWGQGTQVTVSS
notes: periplasmic extract
Regarding B3, in assay [1], the “% cells bound” value amounted to 36.6% and the dMFI was found to be 668.

B4: anti-IL-12Rβ2 VHH clone 3CAH60 (VHH, not shown: small tags and cut ends)
VHH: QVQLQESGGGLVQPGGSLILSCVASGFAMDYLTMGWSREAPRNEREDISCIDTSGRSTDYLDSVKGRFTISRDNAKNTLYLHMNDLKPEDTAEYYCLASTSYCGAGYEYRGQGTQVTVSS
notes: periplasmic extract; also called 20361
Regarding B4, in assay [1], the “% cells bound” value came to 0.1% and the dMFI is 18.

B5: anti-IL-12Rβ2 VHH clone 20510 (VHH, not shown: small tags and cut ends)
VHH: QVQLQESGGGLVQAGGSLRLSCAASGRTFSSYGMGWFRQAPGKEREFVAAISRGARITDYADSVKGRFTISRDNAKNTAYLQMNSLNPEDTAVYFCAAAYTYSGSHYVTARSSDYHSWGQGTQVTVSS
notes: tested as periplasmic extract; also called 3CAM31
Take B5: the “ELISA binding hIL-12RB2/control” value in assay [2] is 1.2 ratio. The “ELISA binding mIL-12RB2/control” value in assay [3] is 16.4 ratio.

B6: anti-IL-12Rβ2 VHH clone 20480 (VHH, not shown: small tags and cut ends)
VHH: B5 VHH with G54D, Q82E
notes: tested as periplasmic extract; also called 2CAM36
With B6, in assay [2], the “ELISA binding hIL-12RB2/control” value came to 0.979 ratio. The “ELISA binding mIL-12RB2/control” value in assay [3] worked out at 18.1 ratio.

B7: anti-IL-12Rβ2 VHH clone 20469 (VHH, not shown: small tags and cut ends)
VHH: B5 VHH with A14P, E44K, G54D, Q82E
notes: tested as periplasmic extract; also called 2CAM8
Regarding B7, the “ELISA binding hIL-12RB2/control” value in assay [2] is 1.05 ratio. In addition, in assay [3], the “ELISA binding mIL-12RB2/control” value was found to be 22 ratio.

B8: anti-IL-12Rβ2 VHH clone 3CAHS153 (VHH, not shown: small tags and cut ends)
VHH: QVQLQESGGGLVQAGGSLRLSCAASGRTFSSYAMGWFRQVPGKERDFVAAVSWGGLSTYYADSVEGRFTISRDNAKNTVFLQMNSLKPEDTAVYYCAADRAYEGLGYGEYEYWGQGTQVTVSS
notes: periplasmic extract
Consider B8, for which, in assay [1], the “% cells bound” value stood at 36.8% and the dMFI worked out at 789.

B9: anti-IL-12Rβ2 VHH clone 3CAH28 (VHH, not shown: small tags and cut ends)
VHH: QVQLQESGGGLVQSGASLRLSCAASERTLSGYAMGWFRQAPGKEREFVAAIRWSGSSTYYAESVEGRFTISRDNAKNTVYLQMNILKPEDTAVYYCAAGSDYADEYDYWGQGTQVTVSS
notes: periplasmic extract; also called 20356
Regarding B9, in assay [1], the “% cells bound” value was 0.15% and the dMFI was 37.

B10: anti-IL-12Rβ2 VHH clone 3CRH93 (VHH, not shown: small tags and cut ends)
VHH: QVQLQESGGGLVQAGGSLRLSCAASGRTVDSYAMGWFRQTPGKEREFVAASWGGGSTYYADSVKGRFTISRDNVKNTMYLQMDSLKPEDTAVYYCAAGPTYYSGPINDNWEGRYDSWGQGTQVTVSS
notes: periplasmic extract
Take B10: in assay [1], the “% cells bound” value was 31.5% and the dMFI was 580.

B11: anti-IL-12Rβ2 VHH clone 2CRH82 (VHH, not shown: small tags and cut ends)
VHH: QVQLQESGGGLVQAGGSLRLSCAASARTESMYAMAWFRQAPGKEREIVAGIIQSGGTTYISDYMKGRFSIDRGNAENTVYLQMDSLKPEDTAVYSCAAKVSSGTPSDIQISQSRWYDHWGQGTQVTVSS
notes: periplasmic extract
In the case of B11, in assay [1], the “% cells bound” value is 40.1% and the dMFI is 844.

B12: anti-IL-12Rβ2 VHH clone 2CRH62 (VHH, not shown: small tags and cut ends)
VHH: QVQLQESGGGLVQPGGSLRLSCVESGRTFTVYDMGWFRQAPGKEREIVAAISADGATSIYQDSVKGRFTISRDNDAKNTVYLQMNSLKPEDTAVYYCAAGRSLIYNLYRANNTDYWGQGTQVTVSS
notes: periplasmic extract
In the case of B12, in assay [1], the “% cells bound” value was determined as 41.9% and the dMFI amounted to 891.

B13: anti-IL-12Rβ2 VHH clone 20527 (VHH, not shown: small tags and cut ends)
VHH: QVQLQESGGGLVQAGGSLRLSCAASGFTLSTYAMSWVRQAPGKGLEWVSSISSSGASTNYADSVKGRFTISRDNAKNTLYLQMNSLKPEDTAVYYCAKASQNYSPPGQGTQVTVSS
notes: tested as periplasmic extract; also called 3CRMS90
Turning to B13, in assay [2], the “ELISA binding hIL-12RB2/control” value came to 0.834 ratio. The “ELISA binding mIL-12RB2/control” value in assay [3] is 9.93 ratio.

B14: anti-IL-12Rβ2 VHH clone 20451 (VHH, not shown: small tags and cut ends)
VHH: B13 VHH with A14P, L29F, T31A, S54T, A56T, S57N, T58P, K98E, S100Y, Q101R
notes: tested as periplasmic extract; also called 2CRM83
In the case of B14, in assay [2], the “ELISA binding hIL-12RB2/control” value worked out at 1.26 ratio. Further, in assay [3], the “ELISA binding mIL-12RB2/control” value is 33.5 ratio.

B15: anti-IL-12Rβ2 VHH clone 20452 (VHH, not shown: small tags and cut ends)
VHH: B13 VHH with T28A, L29F, T31S, Y32V, S54G, A56H, S57D, D62N, A99S, Q101R
notes: tested as periplasmic extract; also called 2CRM84
Turning to B15, in assay [2], the “ELISA binding hIL-12RB2/control” value amounted to 0.989 ratio. For the same molecule, the “ELISA binding mIL-12RB2/control” value in assay [3] was 7.52 ratio.

B16: anti-IL-12Rβ2 VHH clone 20447 (VHH, not shown: small tags and cut ends)
VHH: B13 VHH with A14P, L29F, S30R, T31S, A56T, S57D, F68L, A75V
notes: tested as periplasmic extract; also called 2CRM39
Take B16: the “ELISA binding hIL-12RB2/control” value in assay [2] worked out at 1.4 ratio. The “ELISA binding mIL-12RB2/control” value in assay [3] was 11.8 ratio.

B17: anti-IL-12Rβ2 VHH clone 3CRH83 (VHH, not shown: small tags and cut ends)
VHH: QVQLQESGGGLVQAGGSLKLSCAASGNTFSINAMAWYRQAPGQELELVAAISDVGNTIYADSMKGRFTISRGNADNTVYLQMNSLKPEDTATYYCNAGTFYTSPGDSYYRGYDFWGQGTQVTVSS
notes: periplasmic extract
As for B17, in assay [1], the “% cells bound” value came out at 28.3% and the dMFI stood at 602.

B18: anti-IL-12Rβ2 VHH clone 3CRH28 (VHH, not shown: small tags and cut ends)
VHH: QVQLQESGGGLVQPGGSLTLSCAASGFTFSSNAMSWVRQAPGKGLEWVSSISSGGGTTYYTDSVKGRFTTARDNAKNTLYLRMNSLKPEDTAVYYCSKSSTGSGSRGQGTQVTVSS
notes: periplasmic extract
As to B18, in assay [1], the “% cells bound” value worked out at 44.6% and the dMFI was determined as 1110.

B19: anti-IL-12Rβ2 VHH clone 3CRH73 (VHH, not shown: small tags and cut ends)
VHH: QVQLQESGGGLVRAGGSLRLSCAASGHTFSNYVMGWFRQAPGKEREFVAAISWGGSNTYYADSVKGRFTISRDNAKNTVYLQMNSLKVEDTAVYYCAADRRFEGWNYYSMDYWGKGTQVTVSS
notes: periplasmic extract
For the molecule B19, in assay [1], the “% cells bound” value worked out at 41.2% and the dMFI came to 918.

B20: anti-IL-12Rβ2 VHH clone 3CAHS180 (VHH, not shown: small tags and cut ends)
VHH: QVQLQESGGGLVQAGDSLRLSCAASGRTFDTYIVGWFRQAPGKEREFVSALSWSDDTTIRDDSLRGRFTLSRDNAKNTVYLLMNSLKPEDTAVYYCAAKAKPPAATWSSYRNREWYDYWGQGTQVTVSS
notes: periplasmic extract
In the case of B20, in assay [1], the “% cells bound” value turned out to be 42.6% and the dMFI came to 1010.
